{"source": "paper doi:10.1101/2021.12.23.474050", "target": "wild-type (WT) RBD of the SARS-CoV-2 spike protein (SARS-CoV-2) (UniProt P0DTC2)", "assay": "ITC"}
{"substance": "CC12.1 ScFv", "values": [{"measurement": "Kd", "value": 0.0239, "unit": "µM"}]}
